4 substances from patent US20020193570A1 can be followed below.

For assay [1], the target named is IL-12 receptor on human PBMC (human) (UniProt P42701). Kind of assay: cell-based or functional assay.
The target in assay [2] is IL-12 receptor on mouse effector cells (mouse) (UniProt Q60837). Kind of assay: cell-based or functional assay.
Assay [3] addresses KS antigen recognized by the KS-1/4 antibody (plate-coated / as antigen) (UniProt P16422). Kind of assay: ELISA, plates coated with KS antigen, detection with anti-human IL-12 p40 antibody.

Chain of IL-12 receptor on mouse effector cells (mouse) (Q60837 20-738, chain 1 of 2): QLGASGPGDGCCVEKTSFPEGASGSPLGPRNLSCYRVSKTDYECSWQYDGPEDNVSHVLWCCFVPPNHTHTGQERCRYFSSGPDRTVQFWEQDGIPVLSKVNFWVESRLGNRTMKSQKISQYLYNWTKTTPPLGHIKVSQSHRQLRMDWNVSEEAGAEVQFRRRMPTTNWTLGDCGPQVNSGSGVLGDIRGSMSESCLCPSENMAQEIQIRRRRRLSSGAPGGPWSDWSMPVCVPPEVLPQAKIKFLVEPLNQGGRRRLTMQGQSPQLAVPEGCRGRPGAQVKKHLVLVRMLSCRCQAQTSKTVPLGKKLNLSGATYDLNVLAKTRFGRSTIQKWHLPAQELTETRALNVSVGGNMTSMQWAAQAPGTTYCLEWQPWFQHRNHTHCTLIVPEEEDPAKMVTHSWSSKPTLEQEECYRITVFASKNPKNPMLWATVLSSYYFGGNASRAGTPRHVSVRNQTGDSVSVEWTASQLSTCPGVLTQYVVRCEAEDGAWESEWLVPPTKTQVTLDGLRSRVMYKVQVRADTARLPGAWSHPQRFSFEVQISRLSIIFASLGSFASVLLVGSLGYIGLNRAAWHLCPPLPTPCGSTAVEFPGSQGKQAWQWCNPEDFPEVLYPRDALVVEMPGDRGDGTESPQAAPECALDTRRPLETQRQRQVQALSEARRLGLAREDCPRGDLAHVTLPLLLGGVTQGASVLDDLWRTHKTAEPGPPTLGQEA
Chain of IL-12 receptor on mouse effector cells (mouse) (P97378 24-874, chain 2 of 2, further chain): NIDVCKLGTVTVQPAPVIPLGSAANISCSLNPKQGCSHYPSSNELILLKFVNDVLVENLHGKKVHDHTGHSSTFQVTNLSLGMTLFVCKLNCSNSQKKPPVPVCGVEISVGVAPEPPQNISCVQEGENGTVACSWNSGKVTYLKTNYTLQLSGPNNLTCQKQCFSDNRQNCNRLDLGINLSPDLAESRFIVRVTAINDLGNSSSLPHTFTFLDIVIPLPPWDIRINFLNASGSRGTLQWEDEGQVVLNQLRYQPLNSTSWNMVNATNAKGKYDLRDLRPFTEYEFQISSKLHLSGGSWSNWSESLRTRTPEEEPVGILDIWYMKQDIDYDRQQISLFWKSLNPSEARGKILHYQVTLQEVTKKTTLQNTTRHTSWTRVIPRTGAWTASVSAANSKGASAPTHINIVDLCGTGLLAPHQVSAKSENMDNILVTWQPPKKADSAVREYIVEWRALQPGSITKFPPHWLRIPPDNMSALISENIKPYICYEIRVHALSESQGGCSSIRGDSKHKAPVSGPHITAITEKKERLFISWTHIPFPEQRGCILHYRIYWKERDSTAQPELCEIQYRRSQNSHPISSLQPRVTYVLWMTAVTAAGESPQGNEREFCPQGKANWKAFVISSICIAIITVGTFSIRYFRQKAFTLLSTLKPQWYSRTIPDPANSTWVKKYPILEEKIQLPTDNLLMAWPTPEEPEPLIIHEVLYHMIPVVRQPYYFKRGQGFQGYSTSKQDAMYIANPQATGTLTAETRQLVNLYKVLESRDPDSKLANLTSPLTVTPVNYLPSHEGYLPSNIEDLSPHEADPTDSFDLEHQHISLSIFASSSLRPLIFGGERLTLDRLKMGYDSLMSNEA
Chain of IL-12 receptor on human PBMC (human) (Q99665 24-862, chain 2 of 2, other chains not shown): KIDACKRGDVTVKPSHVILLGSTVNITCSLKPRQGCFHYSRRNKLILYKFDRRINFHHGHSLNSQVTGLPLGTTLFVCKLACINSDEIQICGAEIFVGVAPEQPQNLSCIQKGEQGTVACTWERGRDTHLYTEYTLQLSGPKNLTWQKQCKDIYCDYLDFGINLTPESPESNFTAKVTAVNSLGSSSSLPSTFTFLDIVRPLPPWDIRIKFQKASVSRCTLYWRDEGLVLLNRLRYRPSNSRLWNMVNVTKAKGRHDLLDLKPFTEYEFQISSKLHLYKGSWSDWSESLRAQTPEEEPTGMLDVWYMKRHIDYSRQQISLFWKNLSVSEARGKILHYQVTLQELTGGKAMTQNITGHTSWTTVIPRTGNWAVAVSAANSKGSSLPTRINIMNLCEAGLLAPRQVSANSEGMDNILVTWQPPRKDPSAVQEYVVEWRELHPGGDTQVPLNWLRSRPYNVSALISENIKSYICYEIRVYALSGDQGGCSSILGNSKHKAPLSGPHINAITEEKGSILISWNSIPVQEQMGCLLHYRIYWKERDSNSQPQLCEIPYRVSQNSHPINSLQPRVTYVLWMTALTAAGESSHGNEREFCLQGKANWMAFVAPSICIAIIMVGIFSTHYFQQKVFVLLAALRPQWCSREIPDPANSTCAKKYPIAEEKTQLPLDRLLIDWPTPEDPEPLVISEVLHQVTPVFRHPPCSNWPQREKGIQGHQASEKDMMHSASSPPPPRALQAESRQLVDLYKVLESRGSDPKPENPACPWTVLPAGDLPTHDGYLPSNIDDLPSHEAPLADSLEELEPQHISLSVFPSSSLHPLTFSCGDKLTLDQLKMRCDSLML
Chain of KS antigen recognized by the KS-1/4 antibody (plate-coated / as antigen) (P16422 24-265 limits assumed): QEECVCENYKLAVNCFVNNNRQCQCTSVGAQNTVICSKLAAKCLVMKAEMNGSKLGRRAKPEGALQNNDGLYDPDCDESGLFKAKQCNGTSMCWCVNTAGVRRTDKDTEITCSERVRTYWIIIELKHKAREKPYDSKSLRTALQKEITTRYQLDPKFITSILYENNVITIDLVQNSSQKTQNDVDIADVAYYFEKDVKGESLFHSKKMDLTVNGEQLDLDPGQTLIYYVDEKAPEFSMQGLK

As to “Hu-KS-1/4-mouse p35 human p40 fusion protein (from UniProt P01857 1-330; P43431 23-215; P29460 23-328) (antibody)”, the induction of IFN-γ secretion from PHA-activated PBMC in assay [1] (scale: fold less active than Hu-KS-IL-12 with human IL-12 chains) was found to be 4. Also, the induction of IFN-γ secretion from mouse effector cells pre-stimulated with Concanavalin A in assay [2] (scale: fold less active than the mouse IL-12 standard) was 50.

The substance “Hu-KS-IL-12 fusion protein with both human IL-12 chains (from UniProt P01857 1-330; P29459 23-219; P29460 23-328) (antibody)” registered an induction of IFN-γ secretion from PHA-activated PBMC (fold less active than the IL-12 standard) in assay [1] of 6.

As to “single-chain fusion protein with a mouse p35 subunit and a human p40 subunit (KS-1/4 scFv-mouse p35/human p40) (from UniProt P43431 23-215; P29460 23-328)”, in assay [2], the induction of IFN-γ secretion from mouse cells (fold less than the mouse IL-12 control) was found to be 50. The same substance returned an intensity of binding against the whole KS-1/4 antibody (fold lower than whole KS-1/4 antibody) in assay [3] of 3.

“single-chain fusion protein with human p35 and p40 subunits (KS-1/4 scFv-human IL-12) (from UniProt P29459 23-219; P29460 23-328)”: the intensity of binding against the whole KS-1/4 antibody (fold lower than whole KS-1/4 antibody) in assay [3] came to 3.
